Measurements published in paper doi:10.1101/2020.08.31.276014 (bioRxiv, 2020).

Molecular target: the molecule itself
Experiment: SDS-PAGE of unboiled samples

B1: unencapsulated (naked) DypB (Rv0799c) purified from E. coli (enzyme)
chain: MAVPAVSPQPILAPLTPAAIFLVATIGADGEATVHDALSKISGLVRAIGFRDPTKHLSVVVSIGSDAWDRLFAGPRPTELHPFVELTGPRHTAPATPGDLLFHIRAETMDVCFELAGRILKSMGDAVTVVDEVHGFRFFDNRDLLGFVDGTENPSGPIAIKATTIGDEDRNFAGSCYVHVQKYVHDMASWESLSVTEQERVIGRTKLDDIELDDNAKPANSHVALNVITDDDGTERKIVRHNMPFGEVGKGEYGTYFIGYSRTPTVTEQMLRNMFLGDPAGNTDRVLDFSTAVTGGLFFSPTIDFLDHPPPLPQAATPTLAAGSLSIGSLKGSPR
  stoichiometry N: 4
